Assay [1] addresses T1, iSRCR123 (Deglycosylated) (Homo sapiens, UniProt Q9UGM3).
T1 construct: multiple SRCR domains have better adherence capability compared to that of a single SRCR domain; made in house; host or cells: Drosophila expression system
Put plainly: SPR binding of analytes to on-chip deglycosylated iSRCR123. The settings on record: ligand iSRCR123 (Deglycosylated). The protocol: (§1) Real time binding analyses of the SRCR domains with AgI/II fragments were carried out using the BIAcore 2000 system. […] Self association of iSRCR1 or iSRCR123 (at 2 μM) were also determined in a similar manner as described above. Finally to determine the effect of calcium SPR analysis was carried out by dialyzing the analytes and ligands in binding buffer devoid of CaCl2.
(§2) On-chip Deglycosylation of the iSRCR1 and iSRCR123 was carried out after immobilizing them on CM5 sensor chip. Enzymatic deglycosylation was done to remove N- and O-linked carbohydrates from iSRCR1 and iSRCR123. Briefly, after immobilization of iSRCR1 and iSRCR123, deglycosylation was carried out at native conditions by incubating the entire chip surface externally with a cocktail containing a total reaction volume of 40 μl made up of 4 μl of 10×G7reaction buffer, 4 μl of 10% NP40, 4 μl of Neuraminidase (Sigma), 18 μl water and 10 μl of O-glycosidase (New England Biolabs, Inc.,) and similarly following manufacturers protocols for EndoH (New England Biolabs, Inc). Later, the chip was sealed and incubated overnight at 37° C. Subsequently the chip was thoroughly washed with binding buffer (20 mM HEPES, 150 mM NaCl, 2.5 mM CaCl2) to remove the deglycosylating enzymes and other remnants. Binding studies with FL^AgI/II and FL^SspB and subfragments were then carried out as described above and regenerated as described in Table 2.
(§3) In addition, the SRCR holding two distinct surfaces compounded the elucidation of individual kinetics, and presently there are no modeling protocols available to determine the individual affinities for such a system, therefore for simplicity we have utilized a single site 1:1 Langmuir model. All experiments were carried out in triplicates and the kinetics of the association (KA) and dissociation (KD) rate constants were deduced using the 1:1 Langmuir Kinetic model on the BIA-Evaluation software. The concentration (C in μM) of analyte (FL^AgI/II or FL^SspB at 2 μM) that adhered to the immobilized ligand (iSRCR1, iSRCR123) within the flow cell was calculated using the formula C=(RU/MW)×(1/V), where RU is resonance unit (1 RU=1 pg of bound protein), MW is molecular weight of analyte and V is volume of flow cell (1.2×10^−10 L).

In another assay the target is T2, iSRCR1 (Deglycosylated) (Homo sapiens, UniProt Q9UGM3).
T2 construct: strongly proves that a single SRCR domain contains the adherence sites for AgI/II and SspB; made in house; host or cells: Drosophila expression system
The assay can be described thus: SPR binding of analytes to on-chip deglycosylated iSRCR1. The settings on record: ligand iSRCR1 (Deglycosylated). The procedure: as §1, §2, §3

For a further assay, the target named is T3, SAG (Homo sapiens, UniProt Q9UGM3).
T3 construct: from tissue; host or cells: saliva (purified SAG, gift)
The assay can be described thus: SPR binding of analytes to immobilized SAG. The settings on record: ligand SAG. The protocol:
as §1, §3

Assay [2] deals with T4, iSRCR1 (Homo sapiens, UniProt Q9UGM3).
T4 construct: strongly proves that a single SRCR domain contains the adherence sites for AgI/II and SspB; made in house; host or cells: Drosophila expression system
The assay can be described thus: SPR binding of analytes to immobilized iSRCR1 (CM5 chip, 1:1 Langmuir). Conditions: ligand iSRCR1. The protocol: as §1, §3

For assay [3], the target named is T5, iSRCR123 (Homo sapiens, UniProt Q9UGM3).
T5 construct: multiple SRCR domains have better adherence capability compared to that of a single SRCR domain; made in house; host or cells: Drosophila expression system
The assay can be described thus: Competition adherence SPR on immobilized iSRCR123. Conditions: FL injected first. The assay is classed as binding. The protocol: (§4) To determine whether AgI/II domains bound to the same site on SRCR domains, competitive binding SPR experiments were conducted in triplicates as previously described where each fragment of AgI/II (FL, A3VP1, or C123) or SspB (FL, A3VP1 or C123) was initially passed over the chip surface immobilized with either iSRCR1, iSRCR123 or SAG for 60 seconds to saturate available binding sites. The response curve of AgI/II or SspB first fragment was recorded, where the maximal RU (RU1) was considered as the base line for the second injection, and thereafter the competing fragment was injected and its response was recorded as RU2. The adherence of the second fragment was then calculated (RU2−RU1) for all SPR competing assay as reported earlier.

Assay [4] has as its target T4, iSRCR1. Put plainly: Competition adherence SPR on immobilized iSRCR1. In kind it is binding. Conditions: FL injected first. The protocol: as §4
The target of assay [5] is T5, iSRCR123. Put plainly: SPR binding of analytes to immobilized iSRCR123 (CM5 chip, 1:1 Langmuir). Conditions: for KA / Kd / ka / kd: ligand iSRCR123. The protocol: as §1, §3

T3 sequence (Q9UGM3 20-2413): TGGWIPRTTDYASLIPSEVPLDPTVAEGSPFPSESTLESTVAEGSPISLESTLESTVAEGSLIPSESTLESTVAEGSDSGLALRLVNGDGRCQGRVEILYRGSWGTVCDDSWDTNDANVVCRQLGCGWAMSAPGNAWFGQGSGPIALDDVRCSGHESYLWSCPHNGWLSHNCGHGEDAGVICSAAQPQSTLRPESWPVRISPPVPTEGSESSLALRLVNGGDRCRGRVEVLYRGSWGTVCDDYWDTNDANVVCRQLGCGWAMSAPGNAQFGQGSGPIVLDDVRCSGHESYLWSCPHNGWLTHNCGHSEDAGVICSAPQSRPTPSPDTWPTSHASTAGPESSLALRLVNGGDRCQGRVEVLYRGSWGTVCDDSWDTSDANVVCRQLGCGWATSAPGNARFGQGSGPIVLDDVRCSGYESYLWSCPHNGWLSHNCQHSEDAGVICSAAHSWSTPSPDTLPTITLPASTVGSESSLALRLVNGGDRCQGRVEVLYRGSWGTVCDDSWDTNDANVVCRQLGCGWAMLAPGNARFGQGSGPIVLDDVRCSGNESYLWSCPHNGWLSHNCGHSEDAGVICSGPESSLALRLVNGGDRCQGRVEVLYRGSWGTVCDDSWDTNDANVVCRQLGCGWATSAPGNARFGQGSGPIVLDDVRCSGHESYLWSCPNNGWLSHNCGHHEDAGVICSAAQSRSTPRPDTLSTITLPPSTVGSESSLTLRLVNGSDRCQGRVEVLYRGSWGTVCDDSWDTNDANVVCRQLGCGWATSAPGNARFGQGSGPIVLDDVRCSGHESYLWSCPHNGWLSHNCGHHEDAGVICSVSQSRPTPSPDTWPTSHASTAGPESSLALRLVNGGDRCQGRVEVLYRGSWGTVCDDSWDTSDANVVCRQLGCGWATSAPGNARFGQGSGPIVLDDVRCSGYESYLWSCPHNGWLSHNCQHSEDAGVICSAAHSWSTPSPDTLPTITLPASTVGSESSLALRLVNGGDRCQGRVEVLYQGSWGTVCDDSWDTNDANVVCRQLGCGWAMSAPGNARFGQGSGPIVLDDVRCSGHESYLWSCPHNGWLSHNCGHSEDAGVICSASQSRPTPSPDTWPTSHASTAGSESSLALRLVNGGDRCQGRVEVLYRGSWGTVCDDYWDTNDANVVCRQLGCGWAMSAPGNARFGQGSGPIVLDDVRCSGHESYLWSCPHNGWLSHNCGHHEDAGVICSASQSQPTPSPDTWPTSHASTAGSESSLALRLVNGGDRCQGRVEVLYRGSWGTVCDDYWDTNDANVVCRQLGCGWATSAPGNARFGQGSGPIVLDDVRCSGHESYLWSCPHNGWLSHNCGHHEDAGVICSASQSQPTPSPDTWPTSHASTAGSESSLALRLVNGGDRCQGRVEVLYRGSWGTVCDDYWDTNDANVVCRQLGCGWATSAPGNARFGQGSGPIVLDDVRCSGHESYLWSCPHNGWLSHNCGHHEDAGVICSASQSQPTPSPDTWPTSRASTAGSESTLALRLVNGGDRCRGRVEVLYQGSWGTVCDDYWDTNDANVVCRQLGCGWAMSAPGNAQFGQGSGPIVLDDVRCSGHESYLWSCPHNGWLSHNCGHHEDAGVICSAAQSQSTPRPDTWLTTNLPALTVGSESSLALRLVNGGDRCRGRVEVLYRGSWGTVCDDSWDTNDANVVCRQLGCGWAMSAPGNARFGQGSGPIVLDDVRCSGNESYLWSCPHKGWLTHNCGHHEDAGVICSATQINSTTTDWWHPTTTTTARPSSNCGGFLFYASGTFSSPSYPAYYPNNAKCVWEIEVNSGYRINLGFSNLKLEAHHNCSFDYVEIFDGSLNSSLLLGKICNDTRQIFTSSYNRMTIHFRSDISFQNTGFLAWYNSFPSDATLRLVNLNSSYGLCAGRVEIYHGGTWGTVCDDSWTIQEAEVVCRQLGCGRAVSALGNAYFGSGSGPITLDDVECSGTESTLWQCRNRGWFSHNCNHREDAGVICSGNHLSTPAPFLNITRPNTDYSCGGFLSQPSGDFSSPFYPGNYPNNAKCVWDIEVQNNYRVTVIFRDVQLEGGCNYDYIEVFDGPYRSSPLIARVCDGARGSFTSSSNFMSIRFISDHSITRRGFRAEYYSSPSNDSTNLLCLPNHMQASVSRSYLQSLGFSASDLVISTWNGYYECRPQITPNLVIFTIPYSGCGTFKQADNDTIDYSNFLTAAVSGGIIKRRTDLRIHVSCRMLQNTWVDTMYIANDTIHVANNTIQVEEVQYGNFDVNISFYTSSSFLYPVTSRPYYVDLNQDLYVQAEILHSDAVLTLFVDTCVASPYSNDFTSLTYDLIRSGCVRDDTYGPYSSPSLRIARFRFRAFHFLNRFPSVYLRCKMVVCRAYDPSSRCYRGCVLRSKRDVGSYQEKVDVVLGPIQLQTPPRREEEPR
T1 sequence (Q9UGM3 102-463 limits assumed): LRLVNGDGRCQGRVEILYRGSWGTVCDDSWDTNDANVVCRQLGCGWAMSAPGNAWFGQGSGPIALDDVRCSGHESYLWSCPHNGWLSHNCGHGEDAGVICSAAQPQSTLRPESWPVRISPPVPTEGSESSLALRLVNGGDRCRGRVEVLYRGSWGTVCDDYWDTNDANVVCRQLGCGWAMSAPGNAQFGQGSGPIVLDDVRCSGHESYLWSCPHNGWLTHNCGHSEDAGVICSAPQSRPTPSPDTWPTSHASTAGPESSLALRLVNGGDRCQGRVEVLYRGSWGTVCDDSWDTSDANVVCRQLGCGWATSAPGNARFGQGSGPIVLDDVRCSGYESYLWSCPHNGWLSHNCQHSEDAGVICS
T5 sequence (Q9UGM3 102-463 limits assumed): as above
T2 sequence (Q9UGM3 102-202): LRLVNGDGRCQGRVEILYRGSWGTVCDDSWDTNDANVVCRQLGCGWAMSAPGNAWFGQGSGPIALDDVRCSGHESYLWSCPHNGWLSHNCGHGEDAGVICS
T4 sequence (Q9UGM3 102-202 limits assumed): as the sequence (Q9UGM3 102-202) above

B1: FL^SspB: S. gordonii SspB full length construct (151.9 kDa) (protein)
chain: DEVTETTSTSTVEVATTGNPATNLPEAQGEMSQVAKESQAKAGSKESALPVEVSSADLDKAVADAKSAGVKVVQDETKDKGTATTATDNAQKQDEIKSDYAKQAEEIKTTTEAYKKEVAAHQAETDKINAENKAADDKYQKDLKSHQEEVEKINTANATAKAEYEAKLAQYQKDLATVKKANEDSQQDYQNKLSAYQTELARVQKANAEAKEAYEKAVKENTAKNEALKVENEAIKQRNETAKATYEAAMKQYEADLAAIKKANEDNDADYQAKLAAYQTELARVQKANAEAKEAYDKAVKENTAKNTAIQAENEAIKQRNETAKATYDAAVKKYEADLAAVKQANATNEADYQAKLAAYQTELARVQKANADAKATYEKAVEDNKAKNAAIKAENEEIKQRNAVAKTDYEAKLAKYEADLAKYKKEFAAYTAALAEAESKKKQDGYLSEPRSQSLNFKSEPNAIRTIDSSVHQYGQQELDALVKSWGISPTNPDRKKSRAYSYFNAINSNNTYAKLVLEKDKPVDVTYTGLKNSSFNGKKISKVVYTYTLKETGFNDGTKMTMFASSDPTVTAWYNDYFTSTNINVKVKFYDEEGQLMNLTGGLVNFSSLNRGNGSGAIDKDAIESVRNFNGRYIPISGSSIKIHENNSAYADSSNAEKSLGARWNTSEWDTTSSPNNWYGAIVGEITQSEISFNMASSKSGNIWFAFNSNINAIGVPTKPVAPTAPTQPMYETEKPLEPAPVAPSYENEPTPPVKTPDQPEPSKPEEPTYETEKPLEPAPVAPSYENEPTPPVKTPDQPEPSKPEEPNYETEKPLEPAPVAPSYENEPTPPVKIPDQPEPSKPEEPTYDPLPTPPLAPTPKQLPTPPVVPTVHFHYSSLLAQPQINKEIKNEDGVDIDRTLVAKQSIVKFELKTEALTAGRPKTTSFVLVDPLPTGYKFDLDATKAASTGFDTTYDEASHTVTFKATDETLATYNADLTKPVETLHPTVVGRVLNDGATYTNNFTLTVNDAYGIKSNVVRVTTPGKPNDPDNPNNNYIKPTKVNKNKEGLNIDGKEVLAGSTNYYELTWDLDQYKGDKSSKEAIQNGFYYVDDYPEEALDVRPDLVKVADEKGNQVSGVSVQQYDSLEAAPKKVQDLLKKANITVKGAFQLFSADNPEEFYKQYVATGTSLVITDPMTVKSEFGKTGGKYENKAYQIDFGNGYATEVVVNNVPKITPKKDVTVSLDPTSENLDGQTVQLYQTFNYRLIGGLIPQNHSEELEDYSFVDDYDQAGDQYTGNYKTFSSLNLTMKDGSVIKAGTDLTSQTTAETDATNGIVTVRFKEDFLQKISLDSPFQAETYLQMRRIAIGTFENTYVNTVNKVAYASNTVRTTTPIPRTPDKPTPIPTPKPKDP
B1: the KA in assay [1] was found to be 5.24e+06 M⁻¹; with iSRCR1 (Deglycosylated), 7.97e+06 M⁻¹; with SAG it was 1.63e+08 M⁻¹; with iSRCR1 [2] it was 3.91e+06 M⁻¹; with iSRCR123 [5] it was 2.38e+07 M⁻¹. Moreover, the Kd worked out at 191 nM in assay [1], 125 nM with iSRCR1 (Deglycosylated), 256 nM with iSRCR1 [2] and 42.1 nM in the assay with iSRCR123 [5]. The ka turned out to be 6920 M⁻¹ s⁻¹ in assay [1]; 8300 M⁻¹ s⁻¹ in the assay with iSRCR1 (Deglycosylated); 320000 M⁻¹ s⁻¹ in the assay with SAG; 9250 M⁻¹ s⁻¹ with iSRCR1 [2]; 18200 M⁻¹ s⁻¹ in the assay with iSRCR123 [5]. The kd in assay [1] is 0.00132 s⁻¹; with iSRCR1 (Deglycosylated), 0.00104 s⁻¹; with SAG, 0.00197 s⁻¹; in the assay with iSRCR1 [2], 0.00237 s⁻¹; in the assay with iSRCR123 [5], 0.000759 s⁻¹. Moreover, the “inhibition of binding of the A3VP1 fragment of the same protein” value worked out at 68% with iSRCR123 [3] and 54% in the assay with iSRCR1 [4]. Further, the entries for the “inhibition of binding of the C123 fragment of the same protein” value with iSRCR123 [3] and with iSRCR1 [4] were 76% and 23%, respectively. Besides, in the assay with iSRCR123 [5] (analyte at 2 μM, iSRCR123 versus iSRCR1), the “quantity of protein that adhered to iSRCR123, higher than iSRCR1” value stood at 43%.

B2: C123^AgI/II: S. mutans AgI/II C-terminal C123 fragment (57.3 kDa) (protein)
chain: VNKEIRNNNDINIDRTLVAKQSVVKFQLKTADLPAGRDETTSFVLVDPLPSGYQFNPEATKAASPGFDVTYDNATNTVTFKATAATLATFNADLTKSVATIYPTVVGQVLNDGATYKNNFTLTVNDAYGIKSNVVRVTTPGKPNDPDNPNNNYIKPTKVNKNENGVVIDGKTVLAGSTNYYELTWDLDQYKNDRSSADTIQKGFYYVDDYPEEALELRQDLVKITDANGNEVTGVSVDNYTNLEAAPQEIRDVLSKAGIRPKGAFQIFRADNPREFYDTYVKTGIDLKIVSPMVVKKQMGQTGGSYENQAYQIDFGNGYASNIIINNVPKINPKKDVTLTLDPADTNNVDGQTIPLNTVFNYRLIGGIIPADHSEELFEYNFYDDYDQTGDHYTGQYKVFAKVDITFKDGSIIKSGAELTQYTTAEVDTAKGAITIKFKEAFLRSVSIDSAFQAESYIQMKRIAVGTFENTYINTVNGVTYSSNTVK
Consider B2, for which the KA was 458000 M⁻¹ in assay [1], 48100 M⁻¹ with iSRCR1 (Deglycosylated), 6.46e+06 M⁻¹ with iSRCR1 [2] and 1.15e+07 M⁻¹ in the assay with iSRCR123 [5]. Besides, the Kd in assay [1] was determined as 2180 nM; in the assay with iSRCR1 (Deglycosylated) it was 20800 nM; with iSRCR1 [2] it was 151 nM; with iSRCR123 [5], 87 nM. The ka in assay [1] was determined as 3010 M⁻¹ s⁻¹; with iSRCR1 (Deglycosylated), 1180 M⁻¹ s⁻¹; with iSRCR1 [2] it was 15400 M⁻¹ s⁻¹; with iSRCR123 [5], 8290 M⁻¹ s⁻¹. In addition, the kd in assay [1] worked out at 0.00658 s⁻¹; with iSRCR1 (Deglycosylated), 0.0246 s⁻¹; with iSRCR1 [2], 0.00232 s⁻¹; with iSRCR123 [5], 0.000721 s⁻¹.

B3: A3VP1^AgI/II: S. mutans AgI/II apical A3VP1 fragment (54.4 kDa) (protein)
chain: AANEADYQAKLTAYQTELARVQKANADAKAAYEAAVAANNAANAALTAENTAIKKRNADAKADYEAKLAKYQADLAKYQKDLADYPVKLKAYEDEQASIKAALAELEKHKNEDGNLTEPSAQNLVYDLEPNANLSLTTDGKFLKASAVDDAFSKSTSKAKYDQKILQLDDLDITNLEQSNDVASSMELYGNFGDKAGWSTTVSNNSQVKWGSVLLERGQSATATYTNLQNSYYNGKKISKIVYKYTVDPKSKFQGQKVWLGIFTDPTLGVFASAYTGQVEKNTSIFIKNEFTFYDEDGKPINFDNALLSVASLNRENNSIEMAKDYTGKFVKISGSSIGEKNGMIYATDTLNFRQGQGGARWTMYTRASEPGSGWDSSDAPNSWYGAGAIRMSGPNNSVTLGAISSTLVVPADPTMAIETGKKPNIWYSLNGKIRAVNVPKVTKEKPTPPVKPTAPTKPTYETEKPLKPAPVAPNYEKEPTPPTRTPDQ
In assay [1], B3 yielded a KA of 1.22e+06 M⁻¹, a dissociation constant Kd of 818 nM, a ka of 4070 M⁻¹ s⁻¹ and a kd of 0.00333 s⁻¹. Further, in the assay with iSRCR1 (Deglycosylated), the KA came to 1.92e+06 M⁻¹, the Kd came out at 520 nM, the ka came out at 5270 M⁻¹ s⁻¹ and the kd was 0.00274 s⁻¹. Further, in the assay with iSRCR1 [2], the KA is 8.57e+06 M⁻¹; the affinity, expressed as Kd, was 117 nM; the ka worked out at 28000 M⁻¹ s⁻¹; the kd was determined as 0.00327 s⁻¹. In the assay with iSRCR123 [5], this molecule came in with a KA of 7.98e+06 M⁻¹, a Kd of 125 nM, a ka of 19900 M⁻¹ s⁻¹ and a kd of 0.00249 s⁻¹.

The values above are taken from patent US20160331662A1, “Compositions that Inhibit and Prevent the Formation of Dental Caries and Methods of Using the Same” (priority 2014, published 2016).
